# From US6833248B2, “Human caspase-12 materials and methods” (Pharmacia & Upjohn Company, priority 2000, dated 2004)
# T1: calpain II (Homo sapiens, UniProt P17655)
# T1 construct: purchased Calbiochem
# T1 sequence (P17655 1-700): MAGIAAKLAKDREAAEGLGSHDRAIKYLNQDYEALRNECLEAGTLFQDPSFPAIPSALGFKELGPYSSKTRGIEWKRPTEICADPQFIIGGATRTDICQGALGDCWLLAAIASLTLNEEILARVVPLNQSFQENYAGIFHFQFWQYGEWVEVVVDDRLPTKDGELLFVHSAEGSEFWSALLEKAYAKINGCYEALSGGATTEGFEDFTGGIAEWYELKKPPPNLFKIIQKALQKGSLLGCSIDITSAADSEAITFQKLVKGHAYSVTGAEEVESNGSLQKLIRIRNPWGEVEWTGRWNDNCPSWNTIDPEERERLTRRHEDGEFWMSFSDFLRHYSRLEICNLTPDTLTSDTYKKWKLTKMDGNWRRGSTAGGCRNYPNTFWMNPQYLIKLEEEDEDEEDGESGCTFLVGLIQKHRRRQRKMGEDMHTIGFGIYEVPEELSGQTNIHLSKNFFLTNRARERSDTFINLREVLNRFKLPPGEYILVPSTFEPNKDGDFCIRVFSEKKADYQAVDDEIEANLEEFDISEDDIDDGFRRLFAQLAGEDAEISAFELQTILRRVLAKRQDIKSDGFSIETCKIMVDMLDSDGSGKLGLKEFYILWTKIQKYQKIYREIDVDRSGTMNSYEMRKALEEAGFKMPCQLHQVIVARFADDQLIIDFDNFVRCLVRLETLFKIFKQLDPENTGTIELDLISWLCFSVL
# T1 sequence (P04632 1-268 partner): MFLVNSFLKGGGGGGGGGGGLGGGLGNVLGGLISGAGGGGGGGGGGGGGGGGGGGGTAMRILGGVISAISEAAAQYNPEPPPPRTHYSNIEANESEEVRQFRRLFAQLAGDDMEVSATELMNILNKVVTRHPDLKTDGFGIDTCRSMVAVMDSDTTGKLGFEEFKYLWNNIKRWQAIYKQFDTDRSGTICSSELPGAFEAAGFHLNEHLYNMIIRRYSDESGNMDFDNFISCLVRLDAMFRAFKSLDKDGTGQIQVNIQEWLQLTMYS
# B1: ΔCARD: variant of human caspase-12 missing the CARD domain, with Ser-205 to Gly mutation (SEQ ID NO: 79) (protein, listed as Homo sapiens)
# chain: SALLEIQGAQPSGKLKLCPHAHFHELKTKRADEIYPVMEKERRTCLALNIRNKEFNYLHNRNGSELDLLGMRDLLENLGYSVVIKENLTAQEMETALRQFAAHPEHQSSDSTFLVFMSHGILNGICGTKHWDQEPDVLHDDTIFEIFNNRNCQSLKDKPKVIIMQACRGNGAGIVWFTTDSGKASADTHGRLLQGNICNDAVTKAHVEKDFIAFKSSTPHNVSWRHETNGSVFISQIIYYFREYSWSHHLEEIFQKVQHSFETPNILTQLPTIERLSMTRYFYLFPGN
# Legend:
# [1] = test system: endogenous human caspase-12; test: Induction of endogenous caspase-12 protein by ER stress-inducing agents in SH-EP cells (Western blot); assay type: cell-based; details: SH-EP cells, 1 μg/ml tunicamycin, harvested over time
# Description: Reports in the literature indicated a strong activation of murine caspase-12 in response to agents which induce an endoplasmic reticulum (ER) stress response, such as tunicamycin or the Ca^2+ ionophore A23187. The activation of endogenous human caspase-12 by these ER stress-inducing agents in SH-EP and HEK293 cells was evaluated by Western blot analysis of cell lysates. SH-EP is a neuroblastoma cell line that endogenously expresses human caspase-12 at detectable levels. HEK293 is a transformed kidney cell line that lacks detectable caspase-12.
# (§1) Cell cultures were treated with 1 μg/ml tunicamycin or 2 μM A23187 (Calbiochem) and harvested over time. Cells were lysed in detergent buffer, cellular proteins resolved on NuPAGE gels and subjected to Western blot analysis using the same antibody as in Example 8A above. […] (BACHEM) for 40 hours.
# The biological significance of caspase-12 up-regulation by the ER stress-inducing agent A23187 in apoptosis was further investigated. SH-EP cells were treated with 2 μM A23187 for 40 hours to induce expression of endogenous caspase-12. One control culture was left untreated. Of the four cultures treated with A23187, one culture received 10 μg/ml cycloheximide (CHX) to block new protein synthesis and two cultures were subjected to an apoptotic stimulus, either 250 ng/ml α-Fas antibody for 24 hours or 1200 microjoules UV irradiation. The cultures were harvested after 6.5 hours. Western blot analysis of caspase-12 expression and activation was done as described above in Example 8A, using similar protein loads for each condition tested.
# GRP 78 = test: Induction of GRP 78 in cell cultures (control Western blot); assay type: cell-based; details: tunicamycin treatment
# Description: as §1
# SH-EP cells = test: Cleavage of exogenous hCaspase-12 in transfected SH-EP cells after αFas-antibody induction of the extrinsic cell death pathway (Western blot); assay type: cell-based; details: 250 ng/ml αFas-antibody for 18 hours
# Description: The role of hCaspase-12 in cell death pathways was examined using cells of a neuroblastoma cell line, SH-EP. In the extrinsic (or receptor-induced) cell death pathway, caspase-8 is the apical caspase that cleaves effector caspases such as caspase-3, which cleaves many cellular substrates. Caspase activation, indicated by cleavage of the proform of the enzyme in cell lysates, was evaluated by Western blot analysis.
# The expression vector pIRES-hrGFP-1a harboring the hCaspase-12 or RIK-5 gene was transfected into SH-EP cells using Superfect transfection reagent (Qiagen). At 24 hours post-transfection, 250 ng/ml αFas-antibody (CH-11, Upstate Biotechnology) was added and incubated for 18 hours to induce the extrinsic cell death pathway. Culture medium and cells were harvested and lysed in detergent buffer. Cleavage of exogenous hCaspase-12 was evaluated by Western blot analysis using anti-human caspase-12 antibody (prepared against peptide WSHHLEEIFQKVQHSFE as described in Example 4).
# calpain II = target: T1, calpain II; test: Calpain II cleavage of human caspase-12 in vitro (Western blot); assay type: biochemical; details: affinity-purified protein, 0.012 U/μl calpain II activated by 5 mM CaCl2
# Description: The relationship between calpain and caspase-12 was explored in vitro as follows. Affinity-purified hCaspase-12 and ΔCARD caspase-12 prepared as described in Example 3B above, were incubated with 0.012 U/μl calpain II (Calbiochem) in solutions containing 150 mM NaCl, 20 mM Tris-HCl, pH 7.5, and 1 mM DTT. Calpain II was activated by the addition of 5 mM CaCl2, while corresponding control cultures were not activated by addition of calcium. Cleavage of human caspase-12 was evaluated by Western blot analysis as described in Example 8A above. […] Thus, the activation and processing of caspase-12 is closely tied to cellular calcium levels. It is anticipated that calpain will process caspase-12 by recognizing the cleavage site “ASADT” at positions 269-272 of hCaspase-12 (SEQ ID NO: 77), with cleavage occurring between residues 271 and 272. Because cellular calcium is an important regulatory feature in health and disease, the signaling pathway to caspase-12 may have multiple branches that can result in activation of this caspase.
# DEVD-R110 = test: Homogeneous Caspase Assay, fluorimetric, release of rhodamine-110 from DEVD-R110; assay type: biochemical; details: partially purified protein preparation; two-hour incubation of DEVD-R110 substrate
# From the text: The enzymatic activity of the partially purified hCaspase-12 and ΔCARD proteins was further evaluated in a fluorimetric assay allowing quantitation. The caspase activity of partially purified hCaspase-12 and ΔCARD protein preparations was compared to a control (non-caspase protein) preparation, using the Homogeneous Caspase Assay (Roche Biochemicals) according to the manufacturer's protocol. The assay measures the amount of free rhodamine-110, following its release from the substrate DEVD-R110, a caspase recognition sequence. Following a two-hour incubation of DEVD-R110 substrate with dilutions of the various protein preparations, free rhodamine-110 was quantitated fluorimetrically. Measured fluorescence intensity (RFU) for each preparation was 807 for hCaspase-12, 445 for ΔCARD, and 31 for the control.
# procaspase-3 = test: Proteolytic activity using procaspase-3 substrate (Western blot); assay type: biochemical; details: partially purified preparation, 2 hours at 37° C.; antibody to full-length caspase-3
# Description: Lysates which contain recombinant caspases produced by expression in E. coli often contain fragments indicative of autoprocessing. Because the autolysis in caspase-12 lysates observed in Example 3B above is indicative of enzymatic activity, the enzymatic activity of partially purified human caspase-12 lysates was evaluated using procaspase-3 as a potential substrate. Caspase-3 is an effector caspase, which is cleaved at Asp175 by initiator caspases-8 and -9 to give the mature 19 kDa and 11 kDa subunits of the active enzyme. Processing of procaspase-3 was evaluated by Western blot analysis using an antibody that binds to full-length caspase-3 and another antibody that binds to the larger B subunit and that is specific for activated enzyme.
# For use as a substrate for caspase-12, procaspase-3 was immunoprecipitated from SH-EP cell lysates using an antibody to full-length caspase-3 (Upstate Biotechnology, Inc.) and isolated on Protein G-Plus/Protein A agarose (Oncogene Science). […] Caspase-3 processing/activation by caspase-12 was detected by incubating with an anti-caspase-3 antibody (Upstate Biotechnology) which recognizes all subunits of caspase-3. Following incubation with an anti-rabbit HRP-conjugated antibody (Santa Cruz Biotechnology), immunoreactivity was detected by chemiluminescence using SuperSignal West PICO reagent (Pierce). […]
Molecule,Induction of caspase-12 protein [1],Induction of GRP 78 (GRP 78),Cleavage of exogenous protein in cultures undergoing apoptosis (SH-EP cells),Cleavage by calpain II (calpain II),"Measured fluorescence intensity (RFU), free rhodamine-110 (DEVD-R110)",Processing of procaspase-3 to mature subunits (procaspase-3)
tunicamycin,strong induction,induction,–,–,–,–
B1,–,–,cleaved,cleaves,445 RFU,lower molecular weight bands indicative of cleaved mature subunits were observed
